Laboratory results taken from patent publication US20210388087A1 (Chugai, published 2021).
Numbering of substitutions follows the chain as printed. Names and notes keep the numbering of the source.

T1: Human CD3eg linker (human)
T1 construct: Single chain: epsilon and gamma subunits of human CD3 joined by a 29-mer linker, Flag-tag at the C-terminus; also called recombinant human CD3
T1 chain: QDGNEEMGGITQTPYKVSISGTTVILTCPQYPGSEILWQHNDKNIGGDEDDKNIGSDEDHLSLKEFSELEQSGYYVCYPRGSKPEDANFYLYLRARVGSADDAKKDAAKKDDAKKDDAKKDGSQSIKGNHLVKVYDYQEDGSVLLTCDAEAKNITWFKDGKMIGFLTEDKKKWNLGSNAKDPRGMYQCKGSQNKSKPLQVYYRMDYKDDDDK

B1: H183/L072 VH A56K (antibody, name in Kabat numbering, V domains shown)
VH: QVQLVESGGGLVQPGRSLRLSCAASGFTFSNAWMHWVRQAPGKGLEWVAQIKDKGNAYKAYYAPSVKGRFTISRDDSKNSIYLQMNSLKTEDTAVYYCHYVHYASASTVLPAFGVDAWGQGTTVTVSS
VL: DIVMTQSPLSLPVTPGEPASISCQASQELVHMNRNTYLHWYQQKPGQAPRLLIYKVSNRFPGVPDRFSGSGSGTDFTLKISRVEAEDVGVYYCAQGTSVPFTFGQGTKLEIK
B2: H183/L072 VH A57L (antibody, name in Kabat numbering, V domains shown)
VH: B1 VH with K59A, A60L
VL: B1 VL
B3: H183/L072 VH A57P (antibody, name in Kabat numbering, V domains shown)
VH: B1 VH with K59A, A60P
VL: B1 VL
B4: H183/L072 VH A56V (antibody, name in Kabat numbering, V domains shown)
VH: B1 VH with K59V
VL: B1 VL
B5: H183/L072 VH A56Q (antibody, name in Kabat numbering, V domains shown)
VH: B1 VH with K59Q
VL: B1 VL
B6: H183/L072 VH A60N (antibody, name in Kabat numbering, V domains shown)
VH: B1 VH with K59A, A63N
VL: B1 VL
B7: H183/L072 VH A56R (antibody, name in Kabat numbering, V domains shown)
VH: B1 VH with K59R
VL: B1 VL
B8: H183/L072 VH A60H (antibody, name in Kabat numbering, V domains shown)
VH: B1 VH with K59A, A63H
VL: B1 VL
B9: H183/L072 VH A60D (antibody, name in Kabat numbering, V domains shown)
VH: B1 VH with K59A, A63D
VL: B1 VL
B10: H183/L072 VH A57D (antibody, name in Kabat numbering, V domains shown)
VH: B1 VH with K59A, A60D
VL: B1 VL
B11: H183/L072 VH A60P (antibody, name in Kabat numbering, V domains shown)
VH: B1 VH with K59A, A63P
VL: B1 VL
B12: H183/L072 VH A60G (antibody, name in Kabat numbering, V domains shown)
VH: B1 VH with K59A, A63G
VL: B1 VL
B13: H183/L072 VH A56M (antibody, name in Kabat numbering, V domains shown)
VH: B1 VH with K59M
VL: B1 VL
B14: H183/L072 VH A57K (antibody, name in Kabat numbering, V domains shown)
VH: B1 VH with K59A, A60K
VL: B1 VL
B15: H183/L072 VH A60I (antibody, name in Kabat numbering, V domains shown)
VH: B1 VH with K59A, A63I
VL: B1 VL
B16: H183/L072 VH A56S (antibody, name in Kabat numbering, V domains shown)
VH: B1 VH with K59S
VL: B1 VL
B17: H183/L072 VH A57V (antibody, name in Kabat numbering, V domains shown)
VH: B1 VH with K59A, A60V
VL: B1 VL
B18: H183/L072 VH A60E (antibody, name in Kabat numbering, V domains shown)
VH: B1 VH with K59A, A63E
VL: B1 VL
B19: H183/L072 VH A60L (antibody, name in Kabat numbering, V domains shown)
VH: B1 VH with K59A, A63L
VL: B1 VL
B20: H183/L072 VH A60M (antibody, name in Kabat numbering, V domains shown)
VH: B1 VH with K59A, A63M
VL: B1 VL
B21: H183/L072 VH A60F (antibody, name in Kabat numbering, V domains shown)
VH: B1 VH with K59A, A63F
VL: B1 VL
B22: H183/L072 VH A57H (antibody, name in Kabat numbering, V domains shown)
VH: B1 VH with K59A, A60H
VL: B1 VL
B23: H183/L072 VH A57W (antibody, name in Kabat numbering, V domains shown)
VH: B1 VH with K59A, A60W
VL: B1 VL
B24: H183/L072 VH A57R (antibody, name in Kabat numbering, V domains shown)
VH: B1 VH with K59A, A60R
VL: B1 VL
B25: H183/L072 VH A57S (antibody, name in Kabat numbering, V domains shown)
VH: B1 VH with K59A, A60S
VL: B1 VL
B26: H183/L072 VH A57N (antibody, name in Kabat numbering, V domains shown)
VH: B1 VH with K59A, A60N
VL: B1 VL
B27: H183/L072 VH A56W (antibody, name in Kabat numbering, V domains shown)
VH: B1 VH with K59W
VL: B1 VL
B28: H183/L072 VH A56N (antibody, name in Kabat numbering, V domains shown)
VH: B1 VH with K59N
VL: B1 VL
B29: H183/L072 VH A60R (antibody, name in Kabat numbering, V domains shown)
VH: B1 VH with K59A, A63R
VL: B1 VL
B30: H183/L072 VH A57Y (antibody, name in Kabat numbering, V domains shown)
VH: B1 VH with K59A, A60Y
VL: B1 VL
B31: H183/L072 VH A57T (antibody, name in Kabat numbering, V domains shown)
VH: B1 VH with K59A, A60T
VL: B1 VL
B32: H183/L072 VH A60T (antibody, name in Kabat numbering, V domains shown)
VH: B1 VH with K59A, A63T
VL: B1 VL
B33: H183/L072 VH A60K (antibody, name in Kabat numbering, V domains shown)
VH: B1 VH with K59A, A63K
VL: B1 VL
B34: H183/L072 VH A57E (antibody, name in Kabat numbering, V domains shown)
VH: B1 VH with K59A, A60E
VL: B1 VL
B35: H183/L072 VH A57Q (antibody, name in Kabat numbering, V domains shown)
VH: B1 VH with K59A, A60Q
VL: B1 VL
B36: H183/L072 VH A56P (antibody, name in Kabat numbering, V domains shown)
VH: B1 VH with K59P
VL: B1 VL
B37: H183/L072 VH A56L (antibody, name in Kabat numbering, V domains shown)
VH: B1 VH with K59L
VL: B1 VL
B38: H183/L072 VH A57G (antibody, name in Kabat numbering, V domains shown)
VH: B1 VH with K59A, A60G
VL: B1 VL
B39: H183/L072 VH A57I (antibody, name in Kabat numbering, V domains shown)
VH: B1 VH with K59A, A60I
VL: B1 VL
B40: H183/L072 VH A56Y (antibody, name in Kabat numbering, V domains shown)
VH: B1 VH with K59Y
VL: B1 VL
B41: H183/L072 VH A60S (antibody, name in Kabat numbering, V domains shown)
VH: B1 VH with K59A, A63S
VL: B1 VL
B42: H183/L072 VH A56T (antibody, name in Kabat numbering, V domains shown)
VH: B1 VH with K59T
VL: B1 VL
B43: H183/L072 VH A60Q (antibody, name in Kabat numbering, V domains shown)
VH: B1 VH with K59A, A63Q
VL: B1 VL
B44: H183/L072 VH A57M (antibody, name in Kabat numbering, V domains shown)
VH: B1 VH with K59A, A60M
VL: B1 VL
B45: H183/L072 VH A57F (antibody, name in Kabat numbering, V domains shown)
VH: B1 VH with K59A, A60F
VL: B1 VL

Biological target: T1, Human CD3eg linker
Test: Biacore SPR, vs template H183/L072

In order of falling “fold change of affinity” value:
1. B12  1.9 fold
2. B14  1.5 fold
3. B1  1.3 fold
4. B7  1.3 fold
5. B9  1.3 fold
6. B24  1.3 fold
7. B31  1.3 fold
8. B41  1.3 fold
9. B19  1.2 fold
10. B8  1.1 fold
11. B18  1.1 fold
12. B25  1.1 fold
13. B35  1.1 fold
14. B43  1.1 fold
15. B5  1 fold
16. B6  1 fold
17. B10  1 fold
18. B13  1 fold
19. B20  1 fold
20. B29  1 fold
21. B34  1 fold
22. B3  0.9 fold
23. B16  0.9 fold
24. B17  0.9 fold
25. B22  0.9 fold
26. B28  0.9 fold
27. B32  0.9 fold
28. B33  0.9 fold
29. B44  0.9 fold
30. B27  0.8 fold
31. B4  0.7 fold
32. B21  0.7 fold
33. B26  0.7 fold
34. B37  0.7 fold
35. B38  0.7 fold
36. B40  0.7 fold
37. B42  0.7 fold
38. B15  0.6 fold
39. B39  0.6 fold
40. B2  0.5 fold
41. B11  0.5 fold
42. B23  0.4 fold
43. B30  0.4 fold
44. B45  0.4 fold
45. B36  0.3 fold
